Laboratory results as given in patent US12697371B2, “Method for preventing, treating or delaying myocardial damage using neuregulin and composition” (ZENSUN (SHANGHAI) SCIENCE & TECHNOLOGY, CO., LTD., priority 2019, dated 2026).
Values joined by “and” are separate entries in the source; they are usually repeats but may differ in a detail not shown here. Identical values can stand only once.

Key:
[1] = test system: rats with acute myocardial infarction caused by left coronary artery ligation; assay: Echocardiography, rat acute myocardial infarction, long-term subcutaneous NRG followed by withdrawal through dose reduction (Example 4); assay type: in vivo, Wistar rats
Experimental: (§1) Established in the same way as the rat model of heart failure caused by coronary artery ligation in 5.1, Embodiment 1
The rats were randomly divided into groups and medicated upon coronary artery ligation. According to post-ligation survival, the rats were randomly divided into 2 groups by body weight. Subcutaneous injection was given 3 times a day, and the animals were weighed once a day. The animals were medicated by weight. Echocardiography was performed on day 10 after modeling. All the animals underwent echocardiography every 10 days, underwent echocardiography every week after dose reduction, and underwent echocardiography every 2 weeks after complete withdrawal. All the animals were medicated continuously till day 60, and then a three-week dose-reduction withdrawal plan was implemented: The administered dose was reduced to 15 μg/kg, 7.5 μg/kg and 3.75 μg/kg in the first, second and third week, respectively. The drug was completely withdrawn after three-week dose reduction to observe the clinical symptoms.
(§2) After being anesthetized with 4% isoflurane, the rats were fixed onto the operating board in the left lateral recumbent position. The head of the rats was fixed in the breathing mask of the gaseous anesthesia machine, with isoflurane used for maintenance of anesthesia. After chest hair removal, the skin was disinfected with 75% alcohol and coated with a coupling agent. An echocardiography probe was used to detect any echo signal from the left ventricle of the rats. The left ventricular end-diastolic diameter and left ventricular end-systolic diameter (D) were measured. The left ventricular end-diastolic volume (EDV) and end-systolic volume (ESV) were calculated. The ejection fraction (EF) value was found, EP=(EDV−ESV)/EDV*100%.
All experimental data were expressed in ±SD. GraphPad Prism6 was used for one-way ANOVA analysis. P<0.05 indicates a significant inter-group difference; P<0.01 indicates an extremely significant inter-group difference.

[2] = test system: rats with acute myocardial infarction caused by left coronary artery ligation; assay: Echocardiography, rat acute myocardial infarction, long-term subcutaneous NRG at different frequencies (Example 2); assay type: in vivo, Wistar rats
Experimental: as §1
All the experimental animals were randomly divided into groups upon coronary artery ligation. According to post-ligation survival, the rats were randomly divided into 4 groups by body weight: the excipient group (control group), the NRG30 μg/kgDay group, the NRG30 μg/kg/BlW group and the NRG30 μgkgDay*7+QW group. Administration began on the day following the animal model establishment of myocardial infarction. For the first three groups and for the fourth group on the first 7 days, the rats were given subcutaneous injection 3 times a day and weighed once a day. They took medicine by weight and the dose was 30 μg/kg/day. For the fourth group in the last four weeks, the rats were injected with NRG on one day per week, and the daily dose was 30 μg/kg.
as §2, with “calculated. Also, the” for “calculated. The”, “found, […]. The cardiac function of the rats was performed by echocardiography in the 1st, 2nd, 3rd and 5th weeks after the occurrence of myocardial infarction.” for “found, EP=(EDV−ESV)/EDV*100%.”

[3] = DAY 10, 30 μg/kg/Day sc, 3 times a day, continuous
[4] = DAY 30, 30 μg/kg/Day sc, 3 times a day, continuous
[5] = DAY 50, 30 μg/kg/Day sc, 3 times a day, continuous
[6] = DAY 60, 30 μg/kg/Day sc, 3 times a day, continuous
[7] = DAY 81, 30 μg/kg/Day sc × 60 days, then three weeks of dose reduction (15, 7.5, 3.75 μg/kg)
[8] = DAY 88, after complete withdrawal on day 81 (30 μg/kg/Day sc × 60 days + 3-week dose reduction)
[9] = DAY 102, after complete withdrawal on day 81 (30 μg/kg/Day sc × 60 days + 3-week dose reduction)
[10] = DAY 116, after complete withdrawal on day 81 (30 μg/kg/Day sc × 60 days + 3-week dose reduction)
[11] = DAY 143 (ninth week after withdrawal), after complete withdrawal on day 81
[12] = 30 μg/kg/Day sc, after 35 days of continuous administration
[13] = DAY 8, 30 μg/kg BIW sc, 3 times a day, 2 days a week × 5 weeks
[14] = DAY 8, 30 μg/kg Day*7 + QW sc, 3 times a day × 7 days, then 1 day/week × 4 weeks
[15] = DAY 8, 30 μg/kg/Day sc, 3 times a day × 35 days
[16] = DAY 15, 30 μg/kg BIW sc, 3 times a day, 2 days a week × 5 weeks
[17] = DAY 15, 30 μg/kg Day*7 + QW sc, 3 times a day × 7 days, then 1 day/week × 4 weeks
[18] = DAY 15, 30 μg/kg/Day sc, 3 times a day × 35 days
[19] = DAY 22, 30 μg/kg BIW sc, 3 times a day, 2 days a week × 5 weeks
[20] = DAY 22, 30 μg/kg Day*7 + QW sc, 3 times a day × 7 days, then 1 day/week × 4 weeks
[21] = DAY 22, 30 μg/kg/Day sc, 3 times a day × 35 days
[22] = DAY 36, 30 μg/kg BIW sc, 3 times a day, 2 days a week × 5 weeks
[23] = DAY 36, 30 μg/kg Day*7 + QW sc, 3 times a day × 7 days, then 1 day/week × 4 weeks
[24] = DAY 36, 30 μg/kg/Day sc, 3 times a day × 35 days

B1: NRG: fragment of the NRG-1β2 isomer, 177-237 amino acid fragment containing an EGF-like domain (SEQ ID NO: 1); developed by Zensun (protein, listed as Homo sapiens)
chain: SHLVKCAEKEKTFCVNGGECFMVKDLSNPSRYLCKCPNEFTGDRCQNYVMASFYKAEELYQ
In the case of B1, the “LVEDd and LVEDs compared with the control group” value ([1]; 30 μg/kg/Day sc, 60 consecutive days) is reported as “significantly reduced”, the “EF value compared with the control group” value ([1]; 30 μg/kg/Day sc, after 60 days of continuous administration) is reported as “increased significantly” and the EF [1, 3] is reported as 50.5 ± 4.96 %. For the same molecule, the LVEDd [1, 3] was 0.821 ± 0.05 cm, the LVEDs [1, 3] was 0.637 ± 0.06 cm and the EF [1, 4] was 46.8 ± 6.37 %. It also gave an LVEDd [1, 4] of 0.912 ± 0.06 cm, an LVEDs [1, 4] of 0.725 ± 0.07 cm and an EF [1, 5] of 44.4 ± 7.85 %. For the same molecule, the LVEDd [1, 5] was 0.934 ± 0.07 cm, the LVEDs [1, 5] was 0.754 ± 0.09 cm and the EF [1, 6] was 43.8±8.0% and 43.8 ± 8.04 %. It also gave an LVEDd [1, 6] of 0.981±0.08 cm, an LVEDs [1, 6] of 0.794±0.08 cm and an EF [1, 7] of 42.3±11.2%. For the same molecule, the LVEDd [1, 7] was 0.981±0.08 cm and 0.981 ± 0.07 cm, the LVEDs [1, 7] was 0.799±0.08 cm and the EF [1, 8] was 39.3±12.7% and 39.3 ± 12.71 %. For the same molecule, the LVEDd [1, 8] was 0.994±0.08 cm, the LVEDs [1, 8] was 0.826±0.10 cm and the EF [1, 9] was 36.6 ± 7.69 %. It also gave an LVEDd [1, 9] of 1.031 ± 0.07 cm, an LVEDs [1, 9] of 0.872 ± 0.08 cm and an EF [1, 10] of 33.3 ± 5.12 %. The LVEDd [1, 10] was 1.054 ± 0.07 cm, the LVEDs [1, 10] was 0.908 ± 0.08 cm and the EF [1, 11] was 33.4±7.6%. For the same molecule, the LVEDd [1, 11] was 1.104±0.08 cm, the LVEDs [1, 11] was 0.950±0.09 cm and the “Cardiac function, overall conclusion” value ([1]; a long time after withdrawal) was “significant improving effect on the cardiac function”. For the same molecule, the “EF value compared with the control group” value ([1]; nine weeks after withdrawal) was “still showed a rising trend”, the “LVEDd and LVEDs compared with the control group” value ([1]; nine weeks after withdrawal) was “there remained a significant difference” and the “EF value compared with the control group” value ([2]; 30 μg/kg/BIW sc, after 35 days) was “rising trend”. The “EF value compared with the control group” value [2, 12] was “significantly higher”, the “LVEDd and LVEDs compared with the control group” value [2, 12] was “significantly reduce” and the “Cardiac function compared with the control group” value ([2]; 30 μg/kg/Day*7+QW sc, first 7 days of continuous administration) was “improved to some extent”. It also gave an EF [2, 13] of 50.9 ± 8.958%, an LVEDd [2, 13] of 0.809 ± 0.045 cm and an LVEDs [2, 13] of 0.625 ± 0.068 cm. The EF [2, 14] was 50.9 ± 7.337%, the LVEDd [2, 14] was 0.785 ± 0.045 cm and the LVEDs [2, 14] was 0.607 ± 0.061 cm. It also gave an EF [2, 15] of 52.2 ± 7.802%, an LVEDd [2, 15] of 0.785 ± 0.046 cm and an LVEDs [2, 15] of 0.601 ± 0.063 cm. The EF [2, 16] was 48.9 ± 9.893%, the LVEDd [2, 16] was 0.856 ± 0.065 cm and the LVEDs [2, 16] was 0.671 ± 0.091 cm. The EF [2, 17] was 47.1 ± 8.344%, the LVEDd [2, 17] was 0.864 ± 0.054 cm and the LVEDs [2, 17] was 0.686 ± 0.074 cm. For the same molecule, the EF [2, 18] was 50.3 ± 8.49%, the LVEDd [2, 18] was 0.832 ± 0.054 cm and the LVEDs [2, 18] was 0.646 ± 0.075 cm. It also gave an EF [2, 19] of 47.1 ± 10.427%, an LVEDd [2, 19] of 0.896 ± 0.074 cm and an LVEDs [2, 19] of 0.711 ± 0.102 cm. The EF [2, 20] was 44.7 ± 8.434%, the LVEDd [2, 20] was 0.905 ± 0.062 cm and the LVEDs [2, 20] was 0.729 ± 0.08 cm. It also gave an EF [2, 21] of 49.5 ± 7.897%, an LVEDd [2, 21] of 0.859 ± 0.057 cm and an LVEDs [2, 21] of 0.670 ± 0.069 cm. The EF [2, 22] was 45.2 ± 10.248%, the LVEDd [2, 22] was 0.928±0.084 cm and the LVEDs [2, 22] was 0.746 ± 0.110 cm. For the same molecule, the EF [2, 23] was 42.7±9.892%, the LVEDd [2, 23] was 0.931±0.070 cm and the LVEDs [2, 23] was 0.76 ± 0.097 cm. It also gave an EF [2, 24] of 47.9±8.342%, an LVEDd [2, 24] of 0.879±0.058 cm and an LVEDs [2, 24] of 0.694±0.077 cm.
